Experimental data published in the supplement of paper PMC10724198.
± gives the standard deviation of the averaged measurements.

Key:
Saccharomyces cerevisiae [1] = assay: protein stability index of tFT-peptide fusion (C-terminal peptide) (PSI (0-1 scale)); higher = more stable (slower turnover)
Protocol: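 MPS profiling in S. cerevisiae of the tFT-X12 degron library: putative degron peptides plus stable controls, 12 aa, fused to the C-terminus of a sfGFP-mCherry timer. Cells are FACS-sorted into 8 mCherry/sfGFP bins and deep-sequenced. PSI runs from 0 (unstable) to 1 (stable). Backgrounds are wild type, das1Δ and doa10Δ at 30 °C, and wild type, das1Δ, cdc34-1 and cdc53-1 at 37 °C; 2-3 technical replicates each.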

Saccharomyces cerevisiae [2] = assay: as above; conditions: genetic background: wild type; temperature: 30 C
[3] = genetic background: cdc34-1, temperature: 37 C
[4] = genetic background: cdc53-1, temperature: 37 C
[5] = genetic background: das1 deletion, temperature: 30 C
[6] = genetic background: das1 deletion, temperature: 37 C
[7] = genetic background: doa10 deletion, temperature: 30 C
[8] = genetic background: wild type, temperature: 30 C
[9] = genetic background: wild type, temperature: 37 C
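Further: PSI is a weighted mean of sequencing reads over stability bins, variants kept only with over 10 reads, mCherry proximal and sfGFP distal, peptide attached via GGGS linker.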

| Sequence | protein stability index (Saccharomyces cerevisiae [2]) | also measured |
| --- | --- | --- |
| SLTHTPLGVTRT |  | protein stability index (Saccharomyces cerevisiae [1]; [3]): 0.657 ± 0.033; protein stability index (Saccharomyces cerevisiae [1]; [4]): 0.748 ± 0.012; protein stability index (Saccharomyces cerevisiae [1]; [5]): 0.6409 ± 0.0026; protein stability index (Saccharomyces cerevisiae [1]; [6]): 0.72832 ± 0.00066; protein stability index (Saccharomyces cerevisiae [1]; [7]): 0.635 ± 0.013; protein stability index (Saccharomyces cerevisiae [1]; [8]): 0.642 ± 0.011; protein stability index (Saccharomyces cerevisiae [1]; [9]): 0.704 ± 0.0086 |
| TLDWKFGWGGIG |  | protein stability index (Saccharomyces cerevisiae [1]; [3]): 0.603 ± 0.011; protein stability index (Saccharomyces cerevisiae [1]; [4]): 0.579 ± 0.016; protein stability index (Saccharomyces cerevisiae [1]; [5]): 0.566 ± 0.024; protein stability index (Saccharomyces cerevisiae [1]; [6]): 0.6477 ± 0.0045; protein stability index (Saccharomyces cerevisiae [1]; [7]): 0.5685 ± 0.002; protein stability index (Saccharomyces cerevisiae [1]; [8]): 0.574 ± 0.021; protein stability index (Saccharomyces cerevisiae [1]; [9]): 0.645 ± 0.018 |
| TGGGGRVSLGVG |  | protein stability index (Saccharomyces cerevisiae [1]; [3]): 0.359 ± 0.066; protein stability index (Saccharomyces cerevisiae [1]; [4]): 0.416 ± 0.0099; protein stability index (Saccharomyces cerevisiae [1]; [5]): 0.356 ± 0.013; protein stability index (Saccharomyces cerevisiae [1]; [6]): 0.42 ± 0.0044; protein stability index (Saccharomyces cerevisiae [1]; [7]): 0.377 ± 0.0077; protein stability index (Saccharomyces cerevisiae [1]; [8]): 0.359 ± 0.016; protein stability index (Saccharomyces cerevisiae [1]; [9]): 0.413 ± 0.0088 |
| VRWALLGVVVEG |  | protein stability index (Saccharomyces cerevisiae [1]; [3]): 0.388 ± 0.014; protein stability index (Saccharomyces cerevisiae [1]; [4]): 0.398 ± 0.0062; protein stability index (Saccharomyces cerevisiae [1]; [5]): 0.293 ± 0.029; protein stability index (Saccharomyces cerevisiae [1]; [6]): 0.4742 ± 0.00066; protein stability index (Saccharomyces cerevisiae [1]; [7]): 0.246 ± 0.0085; protein stability index (Saccharomyces cerevisiae [1]; [8]): 0.286 ± 0.027; protein stability index (Saccharomyces cerevisiae [1]; [9]): 0.428 ± 0.013 |
| PLPSRLRRFVPV |  | protein stability index (Saccharomyces cerevisiae [1]; [3]): 0.656 ± 0.05; protein stability index (Saccharomyces cerevisiae [1]; [4]): 0.701 ± 0.0078; protein stability index (Saccharomyces cerevisiae [1]; [5]): 0.595 ± 0.0072; protein stability index (Saccharomyces cerevisiae [1]; [6]): 0.7072 ± 0.0018; protein stability index (Saccharomyces cerevisiae [1]; [7]): 0.613 ± 0.018; protein stability index (Saccharomyces cerevisiae [1]; [8]): 0.62 ± 0.014; protein stability index (Saccharomyces cerevisiae [1]; [9]): 0.6801 ± 0.0039 |
| LVGYSVFVLFFS |  | protein stability index (Saccharomyces cerevisiae [1]; [3]): 0.282 ± 0.015; protein stability index (Saccharomyces cerevisiae [1]; [4]): 0.5056 ± 0.0012; protein stability index (Saccharomyces cerevisiae [1]; [5]): 0.253 ± 0.034; protein stability index (Saccharomyces cerevisiae [1]; [6]): 0.498 ± 0.012; protein stability index (Saccharomyces cerevisiae [1]; [7]): 0.21 ± 0.0089; protein stability index (Saccharomyces cerevisiae [1]; [8]): 0.226 ± 0.048; protein stability index (Saccharomyces cerevisiae [1]; [9]): 0.426 ± 0.037 |
| VPPLVSSSSLLL | 0.636 ± 0.082 |  |
| VSPGYWGPAPLC | 0.682 ± 0.016 |  |
| KKKKKKKTKKQK | 0.696 ± 0.024 |  |
| PLPSSRSPSPPS | 0.711 ± 0.038 |  |
| WPCGGLRFSLPY | 0.674 ± 0.029 |  |
| LSSCLFDPIFLF | 0.783 ± 0.018 |  |
| PPSPPFDFSPQN | 0.716 ± 0.014 |  |
| FSPGYPMAFSLR | 0.74 ± 0.0075 |  |
| LPPPPRPLPPSP | 0.696 ± 0.04 |  |
| PANLLHPSDPPP | 0.612 ± 0.0064 |  |
| KKKRKKKNRGKK | 0.6789 ± 0.004 |  |
| PPSPPPPAPPRA | 0.713 ± 0.023 |  |
| VIRRLSNPCILR | 0.663 ± 0.067 |  |
| NTSRSKKKVNSK | 0.704 ± 0.035 |  |
| NRKGNKGEKNTK | 0.676 ± 0.048 |  |
| GVYRGNNGSPVK | 0.689 ± 0.0086 |  |
| EGPPYSRYKGGS | 0.645 ± 0.11 |  |
| KEHTKKQERTPK | 0.596 ± 0.051 |  |
| RPGLCLTFFSAH | 0.666 ± 0.032 |  |
| HRVVAATKSPSA | 0.727 ± 0.064 |  |

| Sequence | protein stability index (Saccharomyces cerevisiae [2]) | also measured |
| --- | --- | --- |
| LRRPVDPSHIPI | 0.663 ± 0.07 |  |
| IGIGVAGERLGV | 0.612 ± 0.059 |  |
| STVHLPAPAWGS | 0.707 ± 0.033 |  |
| VKYPALMITGFW | 0.669 ± 0.015 |  |
| SRLSPPFPLFSL | 0.505 ± 0.036 |  |
| PAFPSPFPTSSL | 0.647 ± 0.099 |  |
| CGGGGGLWLLEV | 0.559 ± 0.015 |  |
| FRRCLCSLSLTS | 0.631 ± 0.012 |  |
| PVPRCGLPLSLP | 0.685 ± 0.1 |  |
| CCRTMLGSLVRS | 0.659 ± 0.012 |  |
| PPPPPIPPPLVP | 0.658 ± 0.012 |  |
| PPPSPPPSLSLP | 0.702 ± 0.025 |  |
| VGTRGARREVQT | 0.734 ± 0.07 |  |
| SGAVVIPCTFER | 0.669 ± 0.025 |  |
| IDVRRAIIPGLG | 0.595 ± 0.011 |  |
| SRLGVGGGLCSW | 0.714 ± 0.11 |  |
| WGHFVGVWGRAG | 0.664 ± 0.075 |  |
| PPPPPLPPLPTP | 0.693 ± 0.022 |  |
| VTFPSAHSSRRF | 0.71635 ± 0.00041 |  |
| SGASPSPPRTLS | 0.7493 ± 0.0017 |  |
| ENNWILSIKEKT | 0.747 ± 0.02 |  |
| LFYYLFRYFFPP | 0.548 ± 0.0094 |  |
| SFYIMSIQRKAK | 0.681 ± 0.052 |  |
| SPALVRLSLPRP | 0.86 ± 0.14 |  |
| TASRSSRADERA | 0.591 ± 0.033 |  |
| RLEGNRGPWRQD | 0.786 ± 0.1 |  |

| Sequence | protein stability index (Saccharomyces cerevisiae [2]) | also measured |
| --- | --- | --- |
| AEHSIFQLFPKD | 0.7034 ± 0.002 |  |
| RRWATGGVIGGR | 0.677 ± 0.0074 |  |
| PPPRPPASLPSL | 0.5833 ± 0.0033 |  |
| NLCTPRFATDFG | 0.629 ± 0.028 |  |
| LRVGMWNNVINR | 0.734 ± 0.12 |  |
| CLESKTGYEVMG | 0.7065 ± 0.0052 |  |
| MGGGGARAVVVG | 0.627 ± 0.021 |  |
| AGGGNGGGGGEK | 0.663 ± 0.019 |  |
| ERERREGEGKRQ | 0.721 ± 0.023 |  |
| SIPVHGPCNRVV | 0.671 ± 0.025 |  |
| EEYFFVNLFFAS | 0.752 ± 0.085 |  |
| LTEFVVFFFFVF | 0.5166 ± 0.0049 |  |
| VGVGGVGRRAKI | 0.687 ± 0.075 |  |
| VRCCFGGRGGIA | 0.653 ± 0.0079 |  |
| AVSTYGAQAWNH | 0.704 ± 0.018 |  |
| RGELSGVRVSVR | 0.645 ± 0.043 |  |
| STRRTSKCHQGI | 0.711 ± 0.019 |  |
| RGPVSQNPEINF | 0.732 ± 0.02 |  |
| GGCQCFSFPWPP | 0.712 ± 0.087 |  |
| SLGGRVAGGWRD | 0.645 ± 0.1 |  |
| FEHFKCRRRPVI | 0.723 ± 0.044 |  |
| EERGESRGWRVK | 0.604 ± 0.045 |  |
| PPCSLLPPPPAP |  | protein stability index (Saccharomyces cerevisiae [1]; [3]): 0.624 ± 0.049; protein stability index (Saccharomyces cerevisiae [1]; [4]): 0.7196 ± 0.0057; protein stability index (Saccharomyces cerevisiae [1]; [5]): 0.682 ± 0.043; protein stability index (Saccharomyces cerevisiae [1]; [6]): 0.713 ± 0.0088; protein stability index (Saccharomyces cerevisiae [1]; [7]): 0.715 ± 0.023; protein stability index (Saccharomyces cerevisiae [1]; [8]): 0.674 ± 0.056; protein stability index (Saccharomyces cerevisiae [1]; [9]): 0.687 ± 0.024 |
| GRHRGNVWGAVA | 0.701 ± 0.043 |  |
